In paper doi:10.1101/2023.04.12.536585 (2023):

Columns and labels:
[1] = molecular target: p110γ-p101 complex (human p110γ, porcine p101) (human | porcine (Sus scrofa), UniProt P48736 1-1102; O02696 1-877); assay: BLI
[2] = molecular target: p110γ-p84 complex (human p110γ, mouse p84) (human | mouse, UniProt P48736 1-1102; Q3U6Q4 1-756); assay: BLI
Chain of p110γ-p84 complex (human p110γ, mouse p84) (P48736 whole entry, chain 1 of 2): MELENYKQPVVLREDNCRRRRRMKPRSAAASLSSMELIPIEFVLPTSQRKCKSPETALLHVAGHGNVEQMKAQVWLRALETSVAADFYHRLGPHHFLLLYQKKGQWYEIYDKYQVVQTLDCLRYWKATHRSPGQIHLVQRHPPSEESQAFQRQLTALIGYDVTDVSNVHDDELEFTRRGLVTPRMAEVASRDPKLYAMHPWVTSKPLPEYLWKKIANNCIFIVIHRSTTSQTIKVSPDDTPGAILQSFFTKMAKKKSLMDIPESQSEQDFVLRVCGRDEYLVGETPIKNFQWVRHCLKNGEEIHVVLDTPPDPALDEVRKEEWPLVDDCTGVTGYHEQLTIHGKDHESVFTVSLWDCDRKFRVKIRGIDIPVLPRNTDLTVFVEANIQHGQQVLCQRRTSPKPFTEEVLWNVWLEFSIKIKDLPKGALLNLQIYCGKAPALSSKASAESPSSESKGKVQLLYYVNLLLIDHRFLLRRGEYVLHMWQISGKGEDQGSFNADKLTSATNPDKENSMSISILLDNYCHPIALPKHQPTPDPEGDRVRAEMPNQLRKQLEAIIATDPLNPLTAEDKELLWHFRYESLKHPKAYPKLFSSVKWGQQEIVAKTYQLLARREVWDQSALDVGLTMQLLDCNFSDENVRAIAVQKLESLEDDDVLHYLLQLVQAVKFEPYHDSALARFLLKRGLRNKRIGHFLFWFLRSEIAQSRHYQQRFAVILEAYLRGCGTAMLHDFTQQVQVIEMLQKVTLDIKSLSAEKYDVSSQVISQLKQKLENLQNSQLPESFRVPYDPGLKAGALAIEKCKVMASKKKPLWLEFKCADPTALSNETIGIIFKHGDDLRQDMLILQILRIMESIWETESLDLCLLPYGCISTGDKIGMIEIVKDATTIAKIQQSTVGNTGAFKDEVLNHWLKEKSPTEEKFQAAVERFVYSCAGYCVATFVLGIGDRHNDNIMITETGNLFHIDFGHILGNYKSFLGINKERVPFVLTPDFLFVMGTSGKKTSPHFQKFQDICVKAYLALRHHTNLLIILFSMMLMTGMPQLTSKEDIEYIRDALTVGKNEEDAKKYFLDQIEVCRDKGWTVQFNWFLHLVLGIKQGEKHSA
Chain of p110γ-p84 complex (human p110γ, mouse p84) (Q3U6Q4 whole entry, chain 2 of 2): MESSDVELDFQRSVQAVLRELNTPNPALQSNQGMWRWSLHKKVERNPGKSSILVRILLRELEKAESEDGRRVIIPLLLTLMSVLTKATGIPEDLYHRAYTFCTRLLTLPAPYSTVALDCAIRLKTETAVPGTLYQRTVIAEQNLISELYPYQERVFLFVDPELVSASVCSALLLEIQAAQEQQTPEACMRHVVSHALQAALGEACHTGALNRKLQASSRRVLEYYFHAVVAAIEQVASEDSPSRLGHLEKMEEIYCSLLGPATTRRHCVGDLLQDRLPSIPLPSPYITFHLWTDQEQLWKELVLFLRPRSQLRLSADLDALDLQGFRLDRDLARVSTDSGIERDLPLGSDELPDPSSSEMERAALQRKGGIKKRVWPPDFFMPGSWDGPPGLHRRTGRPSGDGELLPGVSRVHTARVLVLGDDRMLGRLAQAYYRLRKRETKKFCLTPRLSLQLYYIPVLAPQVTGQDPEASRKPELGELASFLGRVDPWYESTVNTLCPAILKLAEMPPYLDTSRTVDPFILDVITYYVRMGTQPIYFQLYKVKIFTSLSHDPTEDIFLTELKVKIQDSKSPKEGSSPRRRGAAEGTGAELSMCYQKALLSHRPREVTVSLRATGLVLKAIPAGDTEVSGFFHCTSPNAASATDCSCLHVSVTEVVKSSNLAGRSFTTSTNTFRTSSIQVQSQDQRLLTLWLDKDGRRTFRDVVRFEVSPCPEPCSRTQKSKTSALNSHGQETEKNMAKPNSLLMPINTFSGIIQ

Chain of p110γ-p101 complex (human p110γ, porcine p101) (P48736 whole entry, chain 1 of 2): as the sequence (P48736 whole entry, chain 1 of 2) above
Chain of p110γ-p101 complex (human p110γ, porcine p101) (O02696 whole entry, chain 2 of 2): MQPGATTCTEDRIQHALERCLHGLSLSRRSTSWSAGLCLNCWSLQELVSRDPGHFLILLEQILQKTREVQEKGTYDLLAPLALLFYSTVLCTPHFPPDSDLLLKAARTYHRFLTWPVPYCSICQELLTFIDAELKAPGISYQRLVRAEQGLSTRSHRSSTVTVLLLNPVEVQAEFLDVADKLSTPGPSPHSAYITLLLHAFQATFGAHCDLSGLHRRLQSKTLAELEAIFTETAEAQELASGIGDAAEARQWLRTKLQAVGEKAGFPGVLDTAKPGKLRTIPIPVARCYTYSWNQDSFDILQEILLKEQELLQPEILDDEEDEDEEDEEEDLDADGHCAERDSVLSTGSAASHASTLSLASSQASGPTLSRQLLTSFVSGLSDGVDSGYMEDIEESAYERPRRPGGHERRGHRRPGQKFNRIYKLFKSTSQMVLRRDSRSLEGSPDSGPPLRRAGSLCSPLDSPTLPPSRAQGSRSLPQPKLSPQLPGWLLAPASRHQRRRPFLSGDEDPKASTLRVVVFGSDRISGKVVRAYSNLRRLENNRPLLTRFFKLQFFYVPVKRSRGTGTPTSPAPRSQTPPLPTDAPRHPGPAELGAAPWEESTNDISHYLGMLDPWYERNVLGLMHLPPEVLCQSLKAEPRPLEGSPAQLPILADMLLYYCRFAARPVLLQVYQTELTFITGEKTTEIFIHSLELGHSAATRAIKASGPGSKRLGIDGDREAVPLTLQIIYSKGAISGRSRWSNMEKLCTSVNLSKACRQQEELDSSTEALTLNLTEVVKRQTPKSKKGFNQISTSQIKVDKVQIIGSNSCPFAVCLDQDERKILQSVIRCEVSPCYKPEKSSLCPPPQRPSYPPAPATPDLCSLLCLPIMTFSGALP

B1: Nanobody NB7-PIK3CG (VHH)
VHH: QVQLVESGGGLVQPGGSLRLSCAASGSIFSINAMGWYRQAPGKQRELVAHITSGGSTNYADSVKGRFTISRDNAKNTVYLQMNSLKPEDTAVYYCNEAGDPFLGSTWNGPPAFGSWGQGTQVTVSS
Binder B1 has a Kd [1] of 3.1 nM and a Kd [2] of 3 nM.
